Patent US20240318146A1, “VASCULARIZED ORGANOIDS” (CHILDREN’S HOSPITAL MEDICAL CENTER, priority 2021, published 2024)

Key:
[1] = system: Human pluripotency stem cells; assay: Mesoderm vs. endoderm induction in human pluripotent stem cell spheroids (FOXA2/HAND1 staining, first three days); type: cell-based
Description: To recapitulate the gut tube organogenesis in vitro, a 3D suspension culture system to differentiate endoderm and mesoderm concomitantly from human iPSCs was established. By fine-tuning the dosage and timing of Wnt, Nodal (or TGF-b), and BMP activation, mesendoderm spheroids containing both definitive endodermal (DE, FOXA2+) and lateral plate mesoderm (LPM, HAND1+) populations were generated (FIG. 2A). It was also determined that ˜28 hours of the Wnt activation was a good duration for generating appropriate amounts of both DE and LPM populations from the iPSCs (approximately 1:1) (FIG. 2B). LPM derived splanchnic mesoderm (SM, FOXF1+) further gives rise to the mesenchyme surrounding the primitive gut tube. The SM will then differentiate into the connective tissue, smooth muscle cells (SMCs), and blood vessels of the endodermal organs.
• a) At Day −1, dissociate human iPSCs or human ESCs into single cells. • b) Using an Aggrewell plate (StemCell), or other compatible cell collection plate, generate spheroids of the pluripotent cells. Note: the number of cells in each microwell should be between 500-2000 cells. Accordingly, the spheroid diameter range should be from 50-200 μm. • c) Culture the cells in steady condition (37° C. cell incubator) overnight. Note: usually, the spheroid will form at day 0. […]

mesendoderm spheroids = conditions: 50 ng/mL, day 3 to day 7 (FIG. 3C)
Excerpt: To form various organs properly, the endoderm transforms into a primitive gut tube and is then regionalized along the dorsal-ventral (D-V) and anterior-posterior (A-P) axis into foregut, midgut, and hindgut under the control of various signaling pathways: BMP and TGF-b inhibition facilitate foregut formation, while Wnt and FGF activation facilitate mid/hindgut development.

Embryoid bodies (EBs) = assay: Single-cell RNA-seq of Day 3 meso/endoderm organoids; type: cell-based, human; conditions: accumulated stimulation (0, 1, 2, and 3 days), scRNA-seq at day 3 (FIG. 16E)
Excerpt: Embryoid bodies (EBs) receiving various duration of BMP4 stimulation (0, 1, 2, and 3 days) were subjected to single-cell RNA-seq at day 3 (FIG. 16A). They contained both mesoderm and endoderm populations. FIG. 16B depicts a feature plot of cell distributions under different BMP4 treatment durations. FIG. 16C depicts clustering of d3 meso/endoderm based on marker genes. FIG. 16D depicts a reference map comparison of d3 meso/endoderm to CS7 gastrulation human embryo AM: Advanced mesoderm; EM: Emergent mesoderm; PS: Primitive Streak. FIG. 16E depicts a cluster projection of day 3 meso/endoderm organoids to mouse early gastrulation embryos. i. UMAP of mouse E6.5˜E8.5 embryos. ii. Reverse projection of day 3 organoids to mouse embryos map.

[2] = system: human vascularized gut tube organoids; assay: Single-cell RNA-seq of Day 7 vascularized foregut and mid/hindgut organoids, reverse projection to mouse E8.75 gut tube atlas; type: cell-based
Excerpt: FIG. 17A depicts representative UMAP projection of foregut organoid (1-day treatment of BMP4 from day 1-3) and mid/hindgut organoid (3-days treatment of BMP4 from day 1-3). FIG. 17B-D depict reverse projection of human vascularized gut tube organoids to mouse E8.75 gut tube atlas. FIG. 17B depicts mouse E8.75 embryonic gut tube containing both anterior (A) and posterior (P) portion. Gut tube (endoderm), mesenchyme, and endothelium populations are segregated into A-P subclusters. FIG. 17C depicts Day 7 foregut organoid reverse projection to mouse E8.75 gut tube. […] FIG. 17D depicts Day 7 mid/hindgut organoid reverse projection to mouse E8.75 tube.

`Cc1c[nH]c(-c2cnc(NCCNc3ccc(C#N)cn3)nc2-c2ccc(Cl)cc2Cl)n1` [CHIR99201, reference compound] was tested, and the mesoderm/endoderm ratio ([1]; Activation of Wnt under different durations, first three days (FIG. 14A)) was “drastically changed mesoderm/endoderm ratio”.

VEGF was tested, and the “vascular network (CD31+) surrounding the FOXA2+ epithelial layer” value (mesendoderm spheroids) was “a significant amount of a vascular network (CD31+)”.

B1: BMP4: BMP pathway activator, BMP protein (protein, UniProt P12644 293-408, looked up)
Bone morphogenetic protein 4: SPKHHSQRARKKNKNCRRHSLYVDFSDVGWNDWIVAPPGYQAFYCHGDCPFPLADHLNSTNHAIVQTLVNSVNSSIPKACCVPTELSAISMLYLDEYDKVVLKNYQEMVVEGCGCR
For B1, the mesoderm/endoderm ratio ([1]; Prolonged treatment (FIG. 14B)) was “increased mesoderm/endoderm ratio”, the mesenchymal population (Embryoid bodies (EBs)) was “augmented mesenchymal population” and the neural lineage (Embryoid bodies (EBs)) was “reduced neural lineage”. The “anterior gut tube endoderm and endothelium populations” value ([2]; Day 7 foregut organoid, one-day treatment compared to no BMP4 (FIG. 17C)) was “generated purer anterior gut tube endoderm and more anterior endothelium” and the “posterior gut tube endoderm, mesenchyme, and endothelium populations” value ([2]; Day 7 mid/hindgut organoid, longer treatment during the first three-day differentiation (FIG. 17D)) was “induced more posterior gut tube endoderm, mesenchyme, and endothelium”.
